From the RNAGym collection of RNA variant scans (doi:10.7554/elife.90254) come the findings set out here.

The labels stand for the following.
B1: OR4K15 (parent)
chain: GUUAACGGUCAUAGGCCAUGGAAACUAGGAGCACCAUUUCGCUGCCAGUGAAGAAAUGAACAAAGAAAAUCUGGGCCAGGCAGGCAUCAAAAGAAAUAGUCUUGCGCUCAACCAGAAAGUCUGUAAUCAUUUUAAGGGUA

This data set covers variants of B1. Put plainly: self-cleavage, relative activity (ratio to wild type); higher = more cleavage; in vitro, sequencing; the parent is a self-cleaving ribozyme.
With GUUAACGGUCAUAGGCCAUGGAAACUAGGAGCACCGUUUCGCUGCCAGUGAAGAAAUGAACAAAGAAAAUCUGGGCCAGGCAGGCAUCAAAAGAAAUAGUCUUGCGCUCAACCAGAAAGUCAGUAAUCAUUUUAAGGGUA [A36G U122A], the self-cleavage came out at 1.66.
For GUUAACGGUCAUAGGCCAUGGAAACUAGGAGCACCGUUUCGCUGCCAGUGAAGAAAUGAACAAAGAAAAUCUGGGCCAGGCAGGCAUCAAAAGAAAUAGUCUUGCGCUCAACCAGAAAGUCCGUAAUCAUUUUAAGGGUA [A36G U122C] the value was 1.25.
The figure for GUUAACGGUCAUAGGCCAUGGAAACUAGGAGCACCUUUUCGCUGCCAGUGAAGAAAUGAACAAAGAAGAUCUGGGCCAGGCAGGCAUCAAAAGAAAUAGUCUUGCGCUCAACCAGAAAGUCUGUAAUCAUUUUAAGGGUA [A36U A68G] is 1.62; for GUUAACGGUCAUAGGCCAUGGAAACUAGGAGCACCUUUUCGCUGCCAGUGAAGAAAUGAACAAAGAAAAUCUGGGCCAGGCAGGCAUCAAAAGAAAUAGUCUUGCGCUCAACCAGAAAGUCUGUAAUCAUUUUAAGGGUA [A36U] it is 1.38.
The figure for GUUAACGGUCAUAGGCCAUGGAAACUAGGAGCACCGUUUCGCUGCCAGUGAAGAAAUGAACAAAGAAAAUCUGGGCCAGGCAGGCAUCAAAAGAAAUAGUCUUGCGCUCAACCAGAAAGUCUGUAAUCAUAUUAAGGGUA [A36G U131A] is 0.59.
With GUUAACGGUCAUAGGCCAUGGAAACUAGGAGCACCGUUUCGCUGCCAGUGAAGAAAUGAACAAAGAAAAUCUGGGCCAGGCAGGCAUCAAAAGAAAUAGUCUUGCGCUCAACCAGAAAGUCUGUAAUCAUCUUAAGGGUA [A36G U131C], the self-cleavage was 1.59.
For GUUAACGGUCAUAGGCCAUGGAAACUAGGAGCACCGUUUCGCUGCCAGUGAAGAAAUGAACAAAGAAAAUCUGGGCCAGGCAGGCAUCAAAAGAAAUAGUCUUGCGCUCAACCAGAAAGUCUGUAAUCAUUCUAAGGGUA [A36G U132C] the value was 1.72.
For GUUAACGGUCAUAGGCCAUGGAAACUAGGAGCACCGUUUCGCUGCCAGUGAAGAAAUGAACAAAGAAAAUCUGGGCCAGGCAGGCAUCAAAAGAAAUAGUCUUGCGCUCAACCAGAAAGUCUGUAAUCAUUAUAAGGGUA [A36G U132A] the value was 1.41; for GUUAACGGUCAUAGGCCAUGGAAACUAGGAGCACCUUUUCGCUGCCAGUGAAGAAAUGAACAAAGUAAAUCUGGGCCAGGCAGGCAUCAAAAGAAAUAGUCUUGCGCUCAACCAGAAAGUCUGUAAUCAUUUUAAGGGUA [A36U A66U], 1.05; for GUUAACGGUCAUAGGCCAUGGAAACUAGGAGCACCGUUUCGCUGCCAGUGAAGAAAUGAACAAAGAAAAUCUGGGCCAGGCAGGCAUCAAAAGAAAUAGUCUUGCGCUCAACCAGAAAGUCUGUAAACAUUUUAAGGGUA [A36G U127A], 1.87.
The figure for GUUAACGGUCAUAGGCCAUGGAAACUAGGAGCACCGUUUCGCUGCCAGUGAAGAAAUGAACAAAGAAAAUCUGGGCCAGGCAGGCAUCAAAAGAAAUAGUCUUGCGCUCAACCAGAAAGUCUGUAACCAUUUUAAGGGUA [A36G U127C] is 1.34.
With GUUAACGGUCAUAGGCCAUGGAAACUAGGAGCACCUUUUCGCUGCCAGUGAAGAAAUGAACAAAGAAAGUCUGGGCCAGGCAGGCAUCAAAAGAAAUAGUCUUGCGCUCAACCAGAAAGUCUGUAAUCAUUUUAAGGGUA [A36U A69G], the self-cleavage is 1.56.
For GUUAACGGUCAUAGGCCAUGGAAACUAGGAGCACCUUUUCGCUGCCAGUGAAGAGAUGAACAAAGAAAAUCUGGGCCAGGCAGGCAUCAAAAGAAAUAGUCUUGCGCUCAACCAGAAAGUCUGUAAUCAUUUUAAGGGUA [A36U A55G] the value was 1.4; for GUUAACGGUCAUAGGCCAUGGAAACUAGGAGCACCUUUUCGCUGCCAGUGAAGAAAUGUACAAAGAAAAUCUGGGCCAGGCAGGCAUCAAAAGAAAUAGUCUUGCGCUCAACCAGAAAGUCUGUAAUCAUUUUAAGGGUA [A36U A59U], 1.33; for GUUAACGGUCAUAGGCCAUGGAAACUAGGAGCACCUUUUCGCUGCCAGUGAAGAAAUGGACAAAGAAAAUCUGGGCCAGGCAGGCAUCAAAAGAAAUAGUCUUGCGCUCAACCAGAAAGUCUGUAAUCAUUUUAAGGGUA [A36U A59G], 1.26.
For GUUAACGGUCAUAGGCCAUGGAAACUAGGAGCACCGUUUCGCUGCCAGUGAAGAAAUGAACAAAGAAAAUCUGGGCCAGGCAGGCAUCAAAAGAAAUAGUCUUGCGCUCAACCAGAAAGUCUGUAAUCAUUUCAAGGGUA [A36G U133C] the value was 2.18; for GUUAACGGUCAUAGGCCAUGGAAACUAGGAGCACCUUUUCGCUGCCAGUGAAGCAAUGAACAAAGAAAAUCUGGGCCAGGCAGGCAUCAAAAGAAAUAGUCUUGCGCUCAACCAGAAAGUCUGUAAUCAUUUUAAGGGUA [A36U A54C], 1.73.
As to GUUAACGGUCAUAGGCCAUGGAAACUAGGAGCACCUUUUCGCUGCCAGUGAAGGAAUGAACAAAGAAAAUCUGGGCCAGGCAGGCAUCAAAAGAAAUAGUCUUGCGCUCAACCAGAAAGUCUGUAAUCAUUUUAAGGGUA [A36U A54G], the self-cleavage turned out to be 1.02.
For GUUAACGGUCAUAGGCCAUGGAAACUAGGAGCACCUUUUCGCUGCCAGUGAGGAAAUGAACAAAGAAAAUCUGGGCCAGGCAGGCAUCAAAAGAAAUAGUCUUGCGCUCAACCAGAAAGUCUGUAAUCAUUUUAAGGGUA [A36U A52G], the self-cleavage was 1.43.
As for GUUAACGGUCAUAGGCCAUGGAAACUAGGAGCACCUUUUCGCUGCCGGUGAAGAAAUGAACAAAGAAAAUCUGGGCCAGGCAGGCAUCAAAAGAAAUAGUCUUGCGCUCAACCAGAAAGUCUGUAAUCAUUUUAAGGGUA [A36U A47G], the self-cleavage is 1.03.
For GUUAACGGUCAUAGGCCAUGGAAACUAGGAGCACCUUUUCGCUGCCUGUGAAGAAAUGAACAAAGAAAAUCUGGGCCAGGCAGGCAUCAAAAGAAAUAGUCUUGCGCUCAACCAGAAAGUCUGUAAUCAUUUUAAGGGUA [A36U A47U] the value was 0.69.
